This test has as its target SARS-CoV-2 Spike protein on VSV pseudotyped virus particles (Wuhan-1 isolate Spike sequence) (SARS-CoV-2) (UniProt P0DTC2). Description: cell-based or functional assay.

The source of these data is US20230250158A1.

As to REGN10987 (antibody), the IC50 in pseudovirus assays amounted to 0.45 µg/mL.

Take REGN10933 (antibody): the IC50 in pseudovirus assays was 0.67 µg/mL.
